Experimental data published in patent publication US20250066483A1.

Target: bovine PD-1-His (bovine)
Test: SPR (Biacore X100), bovine PD-1-His immobilised on a CM5 chip, antibody as analyte, single kinetics, 3 repeats

Kd: 12.2 nM
koff: 0.000215 s⁻¹
kon: 18400 M⁻¹ s⁻¹
B1: rat anti-bovine PD-1 monoclonal antibody 5D2 (antibody, V domains shown)
VH: QVQLKETGPGLVQPTQTLSITCTVSGFSLTSYYIQWVRQTPGKGLEWMGFIRSGGSTEYNSEFKSRLSINRDTSKNQVFLKMNSLKTEDTGVYYCARTSSGYEGGFDYWGQGVMVTVSS
VL: DVVLTQTPVSLSVTLGDQASISCRSSQSLEYSDGYTYLEWYLQKPGQSPQLLIYGVSNRFSGVPDRFIGSGSGTDFTLKISRVEPEDLGVYYCFQATHDPDTFGAGTKLELK
